These results are taken from article PMC8811534.

The target of the data set is hAGO2 (human, UniProt Q9UKV8 1-859). The experiment in a line: EMSA.
hAGO2, sequence (Q9UKV8 whole entry): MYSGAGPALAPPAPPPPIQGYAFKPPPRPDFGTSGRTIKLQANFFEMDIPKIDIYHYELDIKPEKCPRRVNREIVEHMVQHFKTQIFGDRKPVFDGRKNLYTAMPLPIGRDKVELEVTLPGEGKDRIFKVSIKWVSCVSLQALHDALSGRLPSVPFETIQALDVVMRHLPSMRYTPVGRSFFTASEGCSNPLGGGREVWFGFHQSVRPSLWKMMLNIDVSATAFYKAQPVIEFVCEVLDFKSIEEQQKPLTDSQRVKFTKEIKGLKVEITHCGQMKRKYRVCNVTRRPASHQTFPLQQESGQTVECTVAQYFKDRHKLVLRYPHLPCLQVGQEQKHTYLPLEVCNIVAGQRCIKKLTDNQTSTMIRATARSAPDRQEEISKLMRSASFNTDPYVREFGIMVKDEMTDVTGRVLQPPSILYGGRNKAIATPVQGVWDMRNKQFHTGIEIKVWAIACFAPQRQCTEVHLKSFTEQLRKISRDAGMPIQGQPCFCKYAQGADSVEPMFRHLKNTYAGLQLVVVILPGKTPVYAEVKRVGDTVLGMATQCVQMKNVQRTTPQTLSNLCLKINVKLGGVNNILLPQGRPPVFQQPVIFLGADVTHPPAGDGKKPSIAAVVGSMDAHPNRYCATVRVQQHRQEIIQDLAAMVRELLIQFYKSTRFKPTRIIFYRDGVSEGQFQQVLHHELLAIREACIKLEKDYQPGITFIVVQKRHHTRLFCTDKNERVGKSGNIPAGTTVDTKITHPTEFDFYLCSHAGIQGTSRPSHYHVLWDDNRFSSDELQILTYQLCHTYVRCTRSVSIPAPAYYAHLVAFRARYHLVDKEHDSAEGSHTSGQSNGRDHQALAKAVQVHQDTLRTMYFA

B1: 5'Cy5-HIS-SARS2-1 DNA-RNA hybrid (DNA:RNA)
DNA: AGCCTTTACCTCCATTAGCATAGACA
RNA: UGUCUAUGCUAAUGGAGGUAAAGGCU
As for B1, the binding result is “binds”.
